Tests used:
[1] = target: Mycobacterium smegmatis MSMEG_6251 soluble domain (msTiME-SD) (M. smegmatis mc^2155); test: crystal structure
[2] = target: Mycobacterium tuberculosis Rv3705c soluble domain (mtTiME-SD) (M. tuberculosis H37Rv); test: SEC-MALS

Mycobacterium smegmatis MSMEG_6251 soluble domain (msTiME-SD) (domain or fragment)
stoichiometry N [1]: 8

Mycobacterium tuberculosis Rv3705c soluble domain (mtTiME-SD) (domain or fragment)
stoichiometry N [2]: 16

Reference: publication PMC8378821
